The record followed here is the domain aggregation screens of Martell et al. (2025).

The data set can be described thus: soluble fraction after stress (log2 fold change); higher = more stays soluble; pooled small domains, quantitative proteomics. The following applies: stress: 75 degC.
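Note: 20 min heating vs room temperature control held 20 min.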

On to “HMKIKAKYTTDFGIRIYAPKPGKNYWRISYVDLDGKLRDTTATSEKTALDKSAEIEVLLRNN”, for which the “soluble fraction (log2)” value is -2.2.

As for “HMKILALETSAKAVSAAVSENGRILASGYQDTGLTHSRTLMPIVEHILKNTDLKLSDMDAIAVAVGPG”, the “soluble fraction (log2)” value amounted to 0.144.

“HMKIMSLSERHQKILELLKVNGIVSVNSLSRQLNVSSVTIRKDLGLLEEKKLLYRSHGGAIQID”: the “soluble fraction (log2)” value is -3.35.

As to “HMKINYNEFLRRFLGEKEGDIIEMETGKRIGTHKGYWFHTIGQRKGLGLGGGPWFVIRKDIDENIIYVSHG”, the “soluble fraction (log2)” value was -1.3.

On to “HMKIPGIGDVYAILARVYSGPQFTWIEAGFPEDDTKAYSYLHTAIRKGSAIAILQAMRTSGALTPTIEKE”, for which the “soluble fraction (log2)” value was -0.0245.

“HMKIPPIMFVRAIMVAGRQSMAIMDIEGVGTGIIVRSGYSFSNGEGKVVRIGPDKVTVNWSGKHLDLAPG”: the “soluble fraction (log2)” value is -3.8.

Take “HMKIPQFAVIKQYLEQQIKTAQWAPGRQIPTEQSLADTFSVSRMTARRAVQQLADAGLLERTQGSGTFVAD”: the “soluble fraction (log2)” value is -0.162.

As for “HMKISDTITEKILTDNNFSMELAKKIGIQQGSLLSSIRRNRDSRILRLWEAVMFYKEQGYTEEEIFTDY”, the “soluble fraction (log2)” value was -2.61.

As for “HMKISELAKKVIASGRVTQWAKHPHIYFVNGMRKVAIELDVNGVFSISMRYYPYDPADRELVENLIRGD”, the “soluble fraction (log2)” value was -2.67.

Regarding “HMKIVQHQLQLPVHVAGKFKGMFYKSDFVMSEDYDDDGNMILAVRLPLVDWNKFLKRTDNELSQYIKVTP”, the “soluble fraction (log2)” value was -1.64.

“HMKKALTAEQEARVRELYFRGINYYSANRYQDAIAEWRKVLAIDPNHEKAKNNIRQTLILLK”: the “soluble fraction (log2)” value was -1.26.

In the case of “HMKKDNLKKIKSIDEDIENELFKLGIYHFEQISIWSSKNAEWIENFLNLPNYVRANQWVEQAKILK”, the “soluble fraction (log2)” value is -1.57.

Take “HMKKDRKKMLKEGIVLFEKILRGMELSPTSEPLKKVLTSFNIQNKEDLYVKLGAGVISSEEVIKELKKK”: the “soluble fraction (log2)” value was -0.0286.

Regarding “HMKKILIVTNRSAGMVVYTIPEEGIRREFTPGETKKIPFEELEKLAYLSGGRTLMENFLKIVDTETTEELG”, the “soluble fraction (log2)” value is -2.24.

For “HMKKIYEEVSEAILTMIKNGTLKPGDKLLPVHQLAEQFQVGRSAVREALSALRAMGLIEMKQGEGTYVKNF”, the “soluble fraction (log2)” value was -1.52.

“HMKKKVDSENLLLDILKQMQPQASTNVLRKMLTNQRISVDDQIIHRAKHVVQEGQTVEIHPKP”: the “soluble fraction (log2)” value was -0.0451.

“HMKKLPEKFDYNEISGLRIEAQQKLNEFQPLNIGQASRISGVTPADISVLLVYLEQLKYSNPDLFFKLNPD”: the “soluble fraction (log2)” value was -1.52.

As for “HMKKLTAEEIQEAKDILEKIQEIPNFKKIFGDDTIKALENSTKTGVLLPDNIISKIHTLMIRFGIK”, the “soluble fraction (log2)” value is -0.202.

“HMKKMEEEFALFNAWVDRRLGIPLAAYKENQMQRRILTIMENSGAKTLREYQQLIEGDEGVRAAFLAHIT”: the “soluble fraction (log2)” value is -2.15.

Take “HMKKPIYLTIANDIEKKIFNNDYPKNERLPSERNLAEEYGVTRMTIRNSIEYLVSKGLLEKRLGSGNYVKR”: the “soluble fraction (log2)” value was -1.55.

As for “HMKKPLEYIDVDKREDFPPVPNGMRYIHFYGGTKNYRAYIAPEDISRADFMEQYPEYVPEHN”, the “soluble fraction (log2)” value came to 0.237.

For the sequence “HMKKSTLLLFFLKELLEGKKISLKSFALENDINIRTAQRYIEDIEEAFPDNLLKENDFYSFV”, the “soluble fraction (log2)” value was -2.89.

“HMKKTETVRFTTNVTHGTKIKETDVEVVKISNSALPDKVVKNKTEVIGKYATADLFKGDFATENKVTD”: the “soluble fraction (log2)” value turned out to be 0.142.

Turning to “HMKKTIIVHVVGEVNTPGIVELNEGARIIDAINGAGGKTEEADMSKINLAYVIEDGSQIYVPSIYE”, the “soluble fraction (log2)” value was -0.387.

On to “HMKKTITISNYINVRDFATMSELPVNSILSVLMKNGIFVSLNEKIDFDTAWLVGSELGLEVKQKQG”, for which the “soluble fraction (log2)” value is -1.58.

With “HMKKYEFIEDLPGVGPATAQKLRDLGYHTVESLAMATARELEPIGVGEKKAFSMIEAARSAIGFS”, the “soluble fraction (log2)” value is 0.284.

For “HMKKYISEEQAKQAALETAGGGSVVKIKFTTDDGIKVYEIDIINGNYEYEITVHAETGKILDVDKERIH”, the “soluble fraction (log2)” value was -1.6.

On to “HMKLELSNDFYNKIRLARKENGLTQEDLAEKLNMKVGVIQKIENGVRQTDSNLMKISKFLGVEIYVE”, for which the “soluble fraction (log2)” value was -1.98.

With “HMKLPNGYGGIAKLSGKRRNPWRVRVTKGWSVDEQTGKAKQLFSTLGYYPTRKDALAALSAYNQNP”, the “soluble fraction (log2)” value is -1.64.

Take “HMKLRLGVNIDPVATVRNARGSAYPDPVRAAIIAQEAGADGITAHLREDRRHIVDQDITSIIKAIDIPLNF”: the “soluble fraction (log2)” value was -0.129.

With “HMKLRSIQEQVQYLEKVDNQKAMQIILNMNDKASAVQILRNMKKEKAAAILAQMDPLQAAQILEDLA”, the “soluble fraction (log2)” value is -0.34.

As to “HMKLSDDIIVDTIKEIIEENKNMIEQRKMGAMGPLMGKAMAKFKGKADGQTVSNVIKDEILNIIN”, the “soluble fraction (log2)” value was -0.0773.

“HMKLSIEDLAAELIRKIEAGDIGNEQGKMPSERELLAIYPVSRYTLRQALNKLSKMGWIYQMQGRGSYIRF”: the “soluble fraction (log2)” value was -1.48.

With “HMKLSNELLNAIMLIKKGIRNPTSLAQRLNTDTQYAKNLLEHLKMTGLINEHSRLTSRGLDIFHQK”, the “soluble fraction (log2)” value stood at 0.356.

As to “HMKLTEEEFNAKRKAYLDRLETLNDEAVIKATFMEAASGLGLQKGSAEFGDLRKYFVDRIVDIK”, the “soluble fraction (log2)” value stood at 1.01.

As to “HMKLTEGETIFLNESDTADWKKIPGIGSVYASRIVKYRNLLGGFVSVNQLREVYGIDDELFAKIYPYI”, the “soluble fraction (log2)” value worked out at 0.085.

As to “HMKLTESQLHKFTNDAVLAHIRNLIEFKGAFTEDDIEPIIRDRAAVYGIDLEDEDYKKVKTDVEYHFK”, the “soluble fraction (log2)” value was -0.0402.

With “HMKLVELVGSPKQIAWAEDIRKNMISYLSALVRKYEAENRPARAEKRAKDMEILSNIKEASWFIENRS”, the “soluble fraction (log2)” value is -0.733.

“HMKMAKTIKEIAEEIGVSKQAVFKKIKQVPLSTEIEKFISTVDGKKLVSVDGENLIKQAFQR”: the “soluble fraction (log2)” value was determined as 0.355.

Consider “HMKMLKAPIPGTIIEVKVNPGQTVNDGDVAVVLEAMKMESDIHFNSSGKVKKIHVNKGDSVQEGDDLIELE”, for which the “soluble fraction (log2)” value worked out at 0.0235.

Take “HMKMNRELNQRQIKMLDYLSVNPKTTRKQYTKMMGISFMTSYRDIQELIDKAYIISKGQGRGTYYILAN”: the “soluble fraction (log2)” value is -0.709.

On to “HMKMQIGEIIRKYRKSNHMTQEEMAERLGVSAPAVNKWENGNSMPDIMLLAPITRLLGISLDELLSFE”, for which the “soluble fraction (log2)” value was -2.26.

For “HMKMSVEEVNLSPRTTNALINNDIKTMKDLVALTDTELRDLKGFGSKAYEEVKEKLSELGLSTQ”, the “soluble fraction (log2)” value was found to be 0.503.

As for “HMKMSVKNEIISLLEKNRDTSISGQVIADSLNVTRAAVWKAIKVLKEEGYNIDGTPNKGYILLGNN”, the “soluble fraction (log2)” value is -1.22.

Turning to “HMKMTFGENLHKLRKIYRLSQEDVASAINLKRSDIAAVEKGDRVLNDEELDKLADFIGIDIVDLL”, the “soluble fraction (log2)” value is -0.479.

Consider “HMKMVSTPTGTRISLTQVKEFISNASFDDMKEILLEVLAWFKAHNLGNPFNYNRAFEFIVAH”, for which the “soluble fraction (log2)” value was -0.256.

For “HMKNELNSKLIISIKEALPPQIKVATYLMDLLSLGREAVYRRIRGDVSFDLEELSIISKALNISIDDVL”, the “soluble fraction (log2)” value was -3.9.

“HMKNESLMLPRDIDYSRVHGLSNEAIQKLQDALPQSLGQASRIEGITPATLSLLLLYLKKNNKRI”: the “soluble fraction (log2)” value was -0.00281.

With “HMKNHSTFKSVLSNIEFPINERISGHAIQNPILGLIKADHPNFSSDQYIAISELNFYREKYISNYLLTEI”, the “soluble fraction (log2)” value is -3.67.

Regarding “HMKNKIYGTIVSSTSGEETVYKVFQVDSSKDITYLFRPDMIRLAHENNQALEFNEETGRGKRIEMSDLPK”, the “soluble fraction (log2)” value is -0.106.
